Patent US20180022820A1
pKd: −log10 of the molar value.

Experiments:
[1] = target: FcRn (Sino Biological Inc, CT009-H08H) (UniProt P55899); assay: SPR (Biacore X100), FcRn-His captured on anti-His IgG chip, antibody as analyte, steady-state affinity fit; first run
[2] = target: FcRn (Sino Biological Inc, CT009-H08H) (UniProt P55899); assay: SPR (Biacore X100), FcRn-His captured on anti-His IgG chip, antibody as analyte, steady-state affinity fit; second run
[3] = target: FcRn (Sino Biological Inc, CT009-H08H) (UniProt P55899); assay: SPR (Biacore X100), FcRn-His captured on anti-His IgG chip, antibody as analyte, steady-state affinity fit; mean of the two runs

pKd [1]: 6.27
pKd [2]: 6.35
pKd [3]: 6.31
Substance: MIL41: a PERJETA sample as prepared by the inventors, which is in consistence with the amino acid sequence of PERJETA (antibody)
